Key:
[1] = system: ECFC; experiment: mRNA expression of sCD146 isoforms in ECFC (qPCR); format: cell-based, human; conditions: for expression of short CD146, long CD146, I5-13-sCD146 and I10-sCD146 at the mRNA level: endothelial cells treated with recombinant proteins
Experimental: C: The mRNA expression of I10-sCD146 and I5-13-sCD146 isoforms was analyzed by qPCR in ECFC after treatment of the cells for 24 h with the recombinant shed soluble CD146 50 ng/ml, VEGF 20 ng/ml, TNF 20 ng/ml, TGF beta 5 ng/ml, and netrin 50 ng/ml. Cells were also treated for 15 min with WNT5a 200 ng/ml and 1 h with WNT3a 50 ng/ml. Results are the mean values +/−SEM of 3 experiments. *: P<0.05, experimental vs Control.
Total cellular RNA was isolated from cells, reverse transcribed into cDNA and the resulting cDNA was subjected to qPCR.

[2] = system: ECFC; experiment: ECFC proliferation assay; format: cell-based, human; conditions: recombinant proteins 50 ng/ml, in the presence of GM6001 10 μM
Experimental: A: Effect of siRNA targeting I10-sCD146 and I5-13-sCD146 on proliferation of ECFC. Experiments were performed in the presence of GM6001 10 μM. Results are mean values of 4 different experiments and representative pictures of the cells in one experiment are given.
B: Effect of over-expression of I10-sCD146 (p-I10-sCD146), I5-13-sCD146 (p-I5-13-sCD146) and shed sCD146 (p-shed sCD146) realized by plasmid transfection on proliferation of ECFC. Experiments were performed in the presence of GM6001 10 μM.
C: Effect of recombinant proteins I10-sCD146, I5-13-sCD146 and shed sCD146 50 ng/ml on the proliferation of ECFC. Experiments were performed in the presence of GM6001 10 μM. Results are mean values of 4 different experiments.
Experiments were performed as previously described (Stalin et al., 2013).

[3] = system: ECFC; experiment: Endothelial cell tube formation in spheroids; format: cell-based, human; conditions: recombinant proteins 50 ng/ml
Experimental: E: Effect of recombinant proteins I10-sCD146, I5-13-sCD146 and shed sCD146 50 ng/ml on the number of sprouts, branched points and cumulative sprout length in spheroid experiments realized with ECFC. Results were compared to VEGF 20 ng/ml and complete EGM2-MV medium.
Formation of spheroid experiments was performed as previously described (Korff T. et al., 2001).

[4] = system: mouse ischemic hind limb model; experiment: Mouse hind limb ischemia model; format: in vivo; conditions: for blood flow (laser-Doppler): 2 μg locally twice a week for 28 days; for blood flow (laser-Doppler) / vascularisation of muscle (isolectin B4 labelling): compared to PBS; for vascularisation of muscle (isolectin B4 labelling): 28 days after surgery; for number of vessels in the legs (angiography pictures) / vessel density in calf, thigh and whole leg (angiography quantification): D28, compared to PBS
Experimental: A: Ischemic mice were treated with PBS or 2 μg of rh-sCD146/rh-I10-sCD146/rh-I5-13-sCD146 or VEGF. Blood perfusion rate was monitored by laser-Doppler. Results are mean values of 6 different animals in each group and expressed as % of the control leg. *, **, ***: P<0.05, P<0.01, P<0.001, I10-sCD146 vs. PBS; $$, $$$: P<0.01, P<0.001, I5-13-sCD146 vs. PBS; ##, ###: P<0.01, P<0.001, shed sCD146 vs. PBS; £: P<0.05, VEGF vs. PBS.
B: Blood vessels examination in hind limb muscle sections from control (PBS) and shed rh-sCD146/rh-I10-sCD146/rh-I5-13-sCD146 treated animals 28 days after surgery. Vessels are labelled with isolectin B4.**, ***: P<0.01, P<0.001, experimental vs control. $: P<0.05, I10-sCD146 vs I5-13-sCD146.
C: Angiographic pictures of control (PBS) and shed sCD146/I10-sCD146/I5-13-sCD146 treated animals at D28. Pictures are representative of the 6 animals in each group. Average of the density of the vessels was expressed as right versus left leg in the different parts of the legs (calf, thigh) and in the whole leg. *, **: P<0.01, P<0.001 experimental vs PBS in calf; $: P<0.05, experimental vs PBS in thigh; #, ##: P<0.05, P<0.01, experimental vs PBS in whole leg.
In sections of muscles from ischemic mice, vascularisation was visualized with isolectin B4 (Lifetechnologies) ( 1/100). Tissue sections were examined by fluorescence microscopy (Leica sp5, Leica, Nanterre, France).
Female mice were subjected to unilateral hind limb ischemia by complete resection of the entire left femoral artery. After surgery, animals were split in four treatment groups: one control group injected in ischemic adductor muscles twice a week with PBS for 28 days; three experimental groups treated as the control groups with the three different recombinant human soluble CD146 (rh-sCD146, rh-I5-13-sCD146, rh-I10-sCD146) 2 μg.
The ratio of the ischemic versus normal hind limb blood flow was measured using a laser doppler blood flow analyzer. At different time points post-surgery (days 1, 3, 7, 14, 21 and 28), animals were subjected to 3 consecutive laser scannings over the regions of interest (leg and feet). Blood flow was expressed as the ischemic versus normal hind limb ratio.
The animals were deeply anesthetised with mix of Ketamine Xylasine (100 mg/kg and 10 mg/kg respectively) and perfused intracardially with 2 ml of lipiodole. CT 3D images were obtained with a microPET/microCT rodent model scanner (nanoPET/CTO, Mediso) with features below: 70 kVp energy, exposure time of 300 ms and 720 projections and were quantified.

[5] = system: b-catenin/TCF transcription activity; experiment: b-catenin/TCF transcription assay (luciferase) in Mouse Embryonic Fibroblasts; format: cell-based; conditions: MEF from CD146 KO mice treated with bleomycin
Experimental: B: Activation of canonical Wnt signalling (b-catenin/TCF transcription activity; Luciferase assay) was estimated in Mouse Embryonic Fibroblasts (MEF) from CD146 KO and WT mice. MEF were treated or not with bleomycin in the presence or absence of shed sCD146, I5-13-sCD146 or I10-sCD146. Results are the mean values +/−SEM of 5 independent experiments.
HUVEC were obtained as previously described and were cultured in EGM2 medium (Kaspi et al., 2017). MEF (Mouse Embryonic Fibroblasts) were isolated from day 13. Embryos from CD146 KO or WT mice were isolated and cultured as previously described (Xu J., 2005).
Luciferase assay was performed as previously described (Kaspi et al., 2017).

Molecule | I5-13-sCD146 mRNA level ([1]; ECFC, 24 h treatment (WNT5a 15 min, WNT3a 1 h)) | endothelial cells proliferation [2] | pseudo-capillary generation (number of sprouts, cumulative sprout length) [3] | blood flow (laser-Doppler) [4] | vascularisation of muscle (isolectin B4 labelling) [4] | number of vessels in the legs (angiography pictures) [4] | vessel density in calf, thigh and whole leg (angiography quantification) [4] | b-catenin/TCF transcription activity [5] | expression of short CD146, long CD146, I5-13-sCD146 and I10-sCD146 at the mRNA level [1] | time after first injection at which a significant effect on blood flow was observed ([4]; 2 μg locally twice a week) [days]
sCD146: recombinant human soluble form of CD146 corresponding to the shed sCD146, obtained from Biocytex | not modified | increased endothelial cells proliferation | increased the ability to generate pseudo-capillaries | able to increase blood flow | vascularisation was increased | increase in the number of vessels | significantly increased | decreased b-catenin/TCF transcription activity | – | –
rh-I10-sCD146: recombinant spliced variant of soluble CD146 containing intron 10, SEQ ID NO: 9 (protein, listed as Homo sapiens) MGLPRLVCAFLLAACCCCPRVAGVPGEAEQPAPELVEVEVGSTALLKCGLSQSQGNLSHVDWFSVHKEKRTLIFRVRQGQGQSEPGEYEQRLSLQDRGATLALTQVTPQDERIFLCQGKRPRSQEYRIQLRVYKAPEEPNIQVNPLGIPVNSKEPEEVATCVGRNGYPIPQVIWYKNGRPLKEEKNRVHIQSSQTVESSGLYTLQSILKAQLVKEDKDAQFYCELNYRLPSGNHMKESREVTVPVFYPTEKVWLEVEPVGMLKEGDRVEIRCLADGNPPPHFSISKQNPSTREAEEETTNDNGVLVLEPARKEHSGRYECQGLDLDTMISLLSEPQELLVNYVSDVRVSPAAPERQEGSSLTLTCEAESSQDLEFQWLREETGQVLERGPVLQLHDLKREAGGGYRCVASVPSIPGLNRTQLVNVAIFGEALPLGRDQVTPSGVVFKLFDKKPPAALGSSGAEGEAG | – | increased endothelial cells proliferation | increased the ability to generate pseudo-capillaries | able to increase blood flow | vascularisation was increased | increase in the number of vessels | significantly increased | decreased b-catenin/TCF transcription activity | did not modify the expression | 3
rh-I5-13-sCD146: recombinant spliced variant of soluble CD146 containing introns 5 and 13, SEQ ID NO: 8 (protein, listed as Homo sapiens) MVYIVRQFLLYNVSGSVYLDQLIVLLTAKFSILRIAGSRVHHSPFSGHLDGCSFLSLQHSLHTSLDMSRHENVFLGLTLSSKSAGLKGFQLAFVPGLLQGTGGYLDGPLPTPVDNPRVGLEVGLRLSLPPLPPCPGVHIQSSQTVESSGLYTLQSILKAQLVKEDKDAQFYCELNYRLPSGNHMKESREVTVPVFYPTEKVWLEVEPVGMLKEGDRVEIRCLADGNPPPHFSISKQNPSTREAEEETTNDNGVLVLEPARKEHSGRYECQGLDLDTMISLLSEPQELLVNYVSDVRVSPAAPERQEGSSLTLTCEAESSQDLEFQWLREETGQVLERGPVLQLHDLKREAGGGYRCVASVPSIPGLNRTQLVNVAIFGPPWMAFKERKVWVKENMVLNLSCEASGHPRPTISWNVNGTASEQDQDPQRVLSTLNVLVTPELLETGVECTASNDLGKNTSILFLELVNLTTLTPDSNTTTGLSTSTASPHTRANSTSTGKPGLAREQGCARASFLPCPSPESPVQKGE | – | increased endothelial cells proliferation | increased the ability to generate pseudo-capillaries | able to increase blood flow | vascularisation was increased | increase in the number of vessels | significantly increased | increased it | did not modify the expression | –

Source: US12411143B2, “CD146 and uses thereof as a biomarker and as a therapeutic target in the diagnosis and treatment of fibrosis” (ASSISTANCE PUBLIQUE HÔPITAUX DE MARSEILLE, priority 2018, dated 2025)
